“And” between values parts separate entries of the source, which are not always exact repeats. Equal entries are not always repeated.
Assay: One-step procedure on hair tresses, tress tensile strength
Conditions: for hair tensile strength: pH 6.6, 10 μg/mL enzyme
Text: COM-TEN® Tensile Tester 95-VD (Com-Ten Industries, Pinellas Park, Fla.), fitted with a 100 lb. (˜45.4 kg) load-cell was used for tensile tests. In order to reduce sample slippage, 5 mm wide strips of industrial grade VELCRO® (Velcro USA, Manchester, N.H.) were attached to the inside edges of the clamps. Before testing the CALIBRATION was set to “off”, FORCE UNITS were set to “grams” and the distance between the clamps was adjusted to 3 cm. The test sample was soaked in water for 30 seconds. Excess moisture was removed by gentle absorption on a paper towel, leaving enough moisture in hair for it to qualify as being at 100% humidity level. The glued edges of the test sample were clamped at both upper and lower clamps in such a way that the VELCRO® strips held the hair just below the glue. Tester speed was set to ˜2.5 inches by adjusting the speed control knob. With the Force meter in RUN mode, TARE was set to ZERO to set the starting PEAK FORCE to 0. To start the test the DIRECTION toggle switch was pressed to UP position. At the conclusion of the test, when the sample failed, the DIRECTION switch was moved to STOP and the peak force was recorded. The hair was cut off along the edge of the clamps at both lower and upper clamps. The clamps were opened and the stubs were removed, dried in air and weighed. The difference in original sample weight and combined weights of the stubs was the weight of the hair undergoing tensile elongation, and this quantity was used to calculate the tensile strength.
Tensile Strength (N/mg hair)=Peak force (Newtons)/(Initial sample weight−weight of stubs)
The hair tresses in these examples were cut from the stock medium brown hair swatches that were custom made by International Hair Importers (Glendale, N.Y.). Each hair tress was glued at one end, and cut at 5 mm width and 4 cm long (excluding the glued portion), with 100+/−20 mg net hair weight. For each test condition, triplicates of hair tresses were used. In the one-step procedure, each hair tress was placed in a clean plastic weighing tray (VWR, Cat. #12577-053), then 1 mL of the perhydrolase HC1121 solution in a buffer was applied to the hair tress, and was rubbed into the hair tress with an applicator. Then calculated amount of triacetin and 30% H2O2 were applied onto each hair tress and rubbed into the hair tress which gave 200 mM triacetin and 100 mM H2O2. The hair tress sat in this reaction mixture for 30 min, before being washed thoroughly with tap water followed by paper towel dry. This completed a 30 min treatment cycle. The treatment cycle was repeated 16 times. Hair tress became lighter-colored and weakened during the treatment. After final rinse and air-drying, tensile strength tests as described in Example 25 were conducted on each hair tress to quantify hair weakening. In addition, L*, a*, b* color measurements were taken for each hair sample to quantify hair color loss, and L*, a*, b* color measurements were also taken for untreated hair as a reference for ΔE color difference calculations. ΔE was calculated in the standard way as ΔE=((L*−L*ref)^2+(a*−a*ref)^2+(b*−b*ref)^2)^0.5. […] At pH 6, when 30 μg/mL HC1121 was used which gave 0.3 μg/mg hair E/H ratio, the tensile strength of treated hair tress reduced to 1.9 N/mg hair, approaching 1.5 N/mg hair, the benchmark strength of hair treated with NAIR® cream for 5 min. At pH 7, when 30 μg/mL HC1121 was used, the tensile strength of treated hair tress was 0.3 N/mg hair, much less than the 1.5 N/mg hair benchmark. Therefore, proper concentration of enzyme at proper pH could weaken hair effectively. The measured hair color loss for treated hair tresses correlated well with the weakening of hair: the greater hair weakening, the greater hair color loss. […]

[1] = 10 μg/mL HC1121, pH 6.6, 50 mM phosphate, 200 mM TA/100 mM H2O2, 24 hr/cycle, 8 cycles
[2] = 10 μg/mL HC1121, pH 6.6, 50 mM phosphate, 200 mM TA/200 mM H2O2, 24 hr/cycle, 8 cycles
[3] = 10 μg/mL HC1121, pH 6.6, 50 mM phosphate, 200 mM TA/300 mM H2O2, 24 hr/cycle, 8 cycles
[4] = 10 μg/mL HC1121, pH 6.6, 50 mM phosphate, 200 mM TA/500 mM H2O2, 24 hr/cycle, 8 cycles
[5] = 10 μg/mL HC1121, pH 6.6, 50 mM phosphate, 500 mM TA/500 mM H2O2, 24 hr/cycle, 8 cycles
[6] = one-step, 30 μg/mL enzyme, pH 6, 30 min × 16, listed as HC1121
[7] = one-step, 30 μg/mL enzyme, pH 7, 30 min × 16, listed as HC1121
[8] = one-step, pH 6.6, 50 mM buffer, 30 min/cycle X 16 cycles, SLES wash each cycle
[9] = one-step, pH 6.6, 50 mM buffer, 24 hr/cycle X 7 cycles, SLES wash each cycle
[10] = one-step, pH 6.6, 100 mM buffer, 30 min/cycle X 16 cycles, SLES wash each cycle

B1: C277S-HC263: C277S variant of Thermotoga maritima perhydrolase fused via a flexible linker to hair-binding domain HC263 (protein)
chain: MAFFDLPLEELKKYRPERYEEKDFDEFWEETLAESEKFPLDPVFERMESHLKTVEAYDVTFSGYRGQRIKGWLLVPKLEEEKLPCVVQYIGYNGGRGFPHDWLFWPSMGYICFVMDTRGQGSGWLKGDTPDYPEGPVDPQYPGFMTRGILDPRTYYYRRVFTDAVRAVEAAASFPQVDQERIVIAGGSQGGGIALAVSALSKKAKALLCDVPFLCHFRRAVQLVDTHPYAEITNFLKTHRDKEEIVFRTLSYFDGVNFAARAKIPALFSVGLMDNISPPSTVFAAYNYYAGPKEIRIYPYNNHEGGGSFQAVEQVKFLKKLFEKGGPGSGGAGSPGSAGGPGSPSAQSQLPDKHSGLHERAPQRYGPEPEPEPEPIPEPPKEAPVVIEKPKPKPKPKPKPPAHDHKNQKETHQRHAAGSGGGGSPHHHHHH
Question: What does the source list for B1?
Answer: Strength N/mg Hair, average [1]: 1.19 N/mg Hair; Strength N/mg Hair, replicate1 [1]: 1.08 N/mg Hair; Strength N/mg Hair, replicate2 [1]: 1.40 N/mg Hair; Strength N/mg Hair, replicate3 [1]: 1.09 N/mg Hair; Strength N/mg Hair, average [2]: 0.86 N/mg Hair; Strength N/mg Hair, replicate3 [2]: 0.99 N/mg Hair; Strength N/mg Hair, average [3]: 0.55 N/mg Hair; Strength N/mg Hair, replicate1 [3]: 0.58 N/mg Hair; Strength N/mg Hair, replicate2 [3]: 0.50 N/mg Hair; Strength N/mg Hair, replicate3 [3]: 0.57 N/mg Hair; Strength N/mg Hair, average [4]: 0.45 N/mg Hair; Strength N/mg Hair, replicate1 [4]: 0.39 N/mg Hair; Strength N/mg Hair, replicate2 [4]: 0.38 N/mg Hair; Strength N/mg Hair, replicate3 [4]: 0.58 N/mg Hair; Strength N/mg Hair, average [5]: 0.53 N/mg Hair; Strength N/mg Hair, replicate1 [5]: 0.53 N/mg Hair; Strength N/mg Hair, replicate3 [5]: 0.49 N/mg Hair; Strength, replicates 1-3 (one-step, 5 μg/mL enzyme, pH 6, 200 mM triacetin, 100 mM H2O2, 30 min × 16, listed as HC1121): 2.89 N/mg Hair and 3.16 N/mg Hair and 3.03 N/mg Hair; Strength, average (one-step, 5 μg/mL enzyme, pH 6, 30 min × 16): 3.03 N/mg Hair; Strength, average (one-step, 15 μg/mL enzyme, pH 6, 30 min × 16): 2.95 N/mg Hair; Strength, replicates 1-3 (one-step, 15 μg/mL enzyme, pH 6, 30 min × 16, listed as HC1121): 3.58 N/mg Hair and 2.54 N/mg Hair and 2.72 N/mg Hair; Strength, average [6]: 1.9 N/mg Hair and 1.86 N/mg Hair; Strength, replicates 1-3 [6]: 1.77 N/mg Hair and 1.86 N/mg Hair and 1.95 N/mg Hair; Strength, average [7]: 0.3 N/mg Hair and 0.32 N/mg Hair; Strength, replicates 1-3 [7]: 0.31 N/mg Hair and 0.33 N/mg Hair (2×); hair tensile strength (one-step, 200 mM triacetin, 100 mM H2O2, 8 cycles of 24 hr): 1.2 N/mg hair; hair tensile strength (one-step, H2O2 over 300 mM, 8 cycles of 24 hr): about 0.5 N/mg hair; Strength N/mg Hair, average [8]: 0.65 N/mg Hair; Strength N/mg Hair, replicate1 [8]: 0.59 N/mg Hair; Strength N/mg Hair, replicate2 [8]: 0.50 N/mg Hair; Strength N/mg Hair, replicate3 [8]: 0.85 N/mg Hair; Strength N/mg Hair, average [9]: 0.82 N/mg Hair; Strength N/mg Hair, replicate1 [9]: 0.86 N/mg Hair; Strength N/mg Hair, replicate2 [9]: 0.94 N/mg Hair; Strength N/mg Hair, replicate3 [9]: 0.66 N/mg Hair; Strength N/mg Hair, average [10]: 0.30 N/mg Hair; Strength N/mg Hair, replicate1 [10]: 0.22 N/mg Hair; Strength N/mg Hair, replicate2 [10]: 0.34 N/mg Hair; Strength N/mg Hair, replicate3 [10]: 0.35 N/mg Hair

— patent publication US20130171217A1, “ENZYMATIC PERACID GENERATION FOR USE IN SKIN CARE PRODUCTS” (E I DU PONT DE NEMOURS AND COMPANY, priority 2010, published 2013)
